Measurements published in EP2548892A1 (CSL Behring GmbH, dated 2013).

What was measured:
Human FXIIa beta (human) [1] = target: Human FXIIa beta (human) (UniProt P00748); assay: Biacore, KD against parental 3F7 (the reference itself)
[2] = target: Human FXIIa (activated Factor XII) (human) (UniProt P00748); assay: cell-based or functional assay
Human FXIIa beta (human) [3] = target: Human FXIIa beta (human) (UniProt P00748); assay: Biacore, purified IgG captured on anti-human IgG, FXIIa beta injected at 0-40 nM, 1:1 model, 25°C
Human FXIIa beta (human) [4] = target: Human FXIIa beta (human) (UniProt P00748); assay: Biacore, purified IgG4 captured on anti-human IgG, FXIIa beta injected, 1:1 model
[5] = target: T1, Human FXII (unactivated Factor XII) (human, UniProt P00748 20-615); assay: Biacore, purified IgG captured on anti-human IgG, FXII injected at 0-500 nM, 1:1 model, 25°C
T1 construct: Bought from Enzyme Research Laboratories; also called Hageman factor
T1 sequence: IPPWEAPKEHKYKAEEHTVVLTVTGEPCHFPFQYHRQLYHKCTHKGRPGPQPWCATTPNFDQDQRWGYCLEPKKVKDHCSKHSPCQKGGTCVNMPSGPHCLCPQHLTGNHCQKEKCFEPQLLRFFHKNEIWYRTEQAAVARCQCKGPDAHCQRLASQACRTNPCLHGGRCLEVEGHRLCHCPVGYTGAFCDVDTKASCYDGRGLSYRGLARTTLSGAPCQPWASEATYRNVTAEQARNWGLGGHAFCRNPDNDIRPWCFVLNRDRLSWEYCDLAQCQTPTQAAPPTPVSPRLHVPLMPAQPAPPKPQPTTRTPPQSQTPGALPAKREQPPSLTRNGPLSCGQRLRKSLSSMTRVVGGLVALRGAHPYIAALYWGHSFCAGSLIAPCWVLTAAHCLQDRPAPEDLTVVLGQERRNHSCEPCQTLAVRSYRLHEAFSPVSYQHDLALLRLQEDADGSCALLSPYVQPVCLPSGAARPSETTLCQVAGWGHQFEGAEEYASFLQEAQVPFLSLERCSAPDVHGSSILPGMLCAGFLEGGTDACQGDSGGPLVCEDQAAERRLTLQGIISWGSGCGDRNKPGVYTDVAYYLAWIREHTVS

Fold affinity improvement (Human FXIIa beta (human) [1]): 1 fold
potency in FXIIa amidolytic activity assay, against OT2 [2]: 2 fold
Kd (Human FXIIa beta (human) [3]): 6.2 nM
Kd (Human FXIIa beta (human) [4]): 8.6 nM
koff (Human FXIIa beta (human) [4]): 0.0011 s⁻¹
kon (Human FXIIa beta (human) [4]): 120000 M⁻¹ s⁻¹
Kd [5]: 121 nM
B1: 3F7 monoclonal antibody (fully human IgG4/lambda) (antibody, V domains shown)
VH: EVQLLESGGGLVQPGGSLRLSCAASGFTFSKYIMQWVRQAPGKGLEWVSGIRPSGGTTVYADSVKGRFTISRDNSKNTLYLQMNSLRAEDTAVYYCARALPRSGYLISPHYYYYALDVWGQGTTVTVSS
VL: QSELTQPPSASGTPGQRVTISCSGSSSNIGRNYVYWYQQVPGTAPKLLIYSNNQRPSGVPDRFSGSKSGTSASLVISGLRSEDEADYYCAAWDASLRGVFGGGTKLTVLG
notes: also called 3F7 mAb; MAb 3F7
